Substitutions are numbered along the chain they refer to. Numbers in names are those of the source. Each block holds one binder with its values, some of them ahead of it.
Biological target: fibrinogen (UniProt P02671)
Assay: SPR

UniProt P02671, sequence (P02671 36-866, chain 1 of 3): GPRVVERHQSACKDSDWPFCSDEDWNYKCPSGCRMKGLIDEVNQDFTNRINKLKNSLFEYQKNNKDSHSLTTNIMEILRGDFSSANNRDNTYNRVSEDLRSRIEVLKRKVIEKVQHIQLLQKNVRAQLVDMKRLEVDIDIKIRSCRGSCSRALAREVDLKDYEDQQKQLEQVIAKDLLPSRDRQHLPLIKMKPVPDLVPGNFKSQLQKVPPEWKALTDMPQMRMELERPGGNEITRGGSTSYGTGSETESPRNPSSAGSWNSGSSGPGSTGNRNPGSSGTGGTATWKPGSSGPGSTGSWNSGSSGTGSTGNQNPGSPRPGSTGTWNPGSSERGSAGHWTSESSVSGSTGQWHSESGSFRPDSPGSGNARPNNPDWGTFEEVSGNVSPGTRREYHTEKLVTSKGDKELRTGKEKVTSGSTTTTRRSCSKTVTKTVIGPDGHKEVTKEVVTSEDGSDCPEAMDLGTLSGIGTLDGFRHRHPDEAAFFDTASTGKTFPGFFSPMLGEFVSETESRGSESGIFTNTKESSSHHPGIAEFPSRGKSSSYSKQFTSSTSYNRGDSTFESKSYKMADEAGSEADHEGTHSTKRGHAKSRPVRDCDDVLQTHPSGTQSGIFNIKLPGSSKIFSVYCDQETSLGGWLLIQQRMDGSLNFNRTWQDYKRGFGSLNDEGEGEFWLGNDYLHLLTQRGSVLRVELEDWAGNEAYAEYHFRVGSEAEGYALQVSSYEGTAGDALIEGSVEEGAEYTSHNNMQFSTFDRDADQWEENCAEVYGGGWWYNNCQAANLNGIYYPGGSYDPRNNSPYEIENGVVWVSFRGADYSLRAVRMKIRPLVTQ
UniProt P02671, sequence (P02675 45-491, chain 2 of 3, further chain): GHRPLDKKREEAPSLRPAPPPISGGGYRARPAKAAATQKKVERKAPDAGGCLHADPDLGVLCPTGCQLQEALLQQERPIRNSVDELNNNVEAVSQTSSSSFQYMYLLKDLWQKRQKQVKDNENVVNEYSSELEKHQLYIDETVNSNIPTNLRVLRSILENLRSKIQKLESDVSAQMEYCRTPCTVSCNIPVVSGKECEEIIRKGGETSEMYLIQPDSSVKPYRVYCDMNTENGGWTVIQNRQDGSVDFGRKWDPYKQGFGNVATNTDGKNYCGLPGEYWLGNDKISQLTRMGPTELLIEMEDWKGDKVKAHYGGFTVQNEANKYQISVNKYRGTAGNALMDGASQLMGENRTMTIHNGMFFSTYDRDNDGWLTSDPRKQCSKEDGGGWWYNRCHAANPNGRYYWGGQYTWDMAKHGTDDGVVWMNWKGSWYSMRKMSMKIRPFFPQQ
UniProt P02671, sequence (P02679 27-453, chain 3 of 3, further chain): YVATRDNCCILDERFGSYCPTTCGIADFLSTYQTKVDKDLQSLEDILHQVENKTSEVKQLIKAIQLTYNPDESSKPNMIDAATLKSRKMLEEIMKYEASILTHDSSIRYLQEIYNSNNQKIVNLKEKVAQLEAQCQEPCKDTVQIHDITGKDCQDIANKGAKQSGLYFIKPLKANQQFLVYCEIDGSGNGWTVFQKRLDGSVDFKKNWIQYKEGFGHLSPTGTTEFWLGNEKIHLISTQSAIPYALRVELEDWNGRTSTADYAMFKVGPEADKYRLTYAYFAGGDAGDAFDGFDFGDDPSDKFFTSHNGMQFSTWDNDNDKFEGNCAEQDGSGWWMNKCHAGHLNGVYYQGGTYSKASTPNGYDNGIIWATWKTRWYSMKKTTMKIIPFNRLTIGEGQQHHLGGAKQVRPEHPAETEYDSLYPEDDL

Kd: 20 µM
B1: human αX I-domain (residues Q129 to G319), wild type (domain or fragment)
chain: QEQDIVFLIDGSGSISSRNFATMMNFVRAVISQFQRPSTQFSLMQFSNKFQTHFTFEEFRRSSNPLSLLASVHQLQGFTYTATAIQNVVHRLFHASYGARRDAAKILIVITDGKKEGDSLDYKDVIPMADAAGIIRYAIGVGLAFQNRNSWKELNDIASKPSQEHIFKVEDFDALKDIQNQLKEKIFAIEG

Kd: 100 µM
B2: human αX I-domain I314G construct (domain or fragment)
chain: B1 chain with I186G

From article PMC9440770
